From patent US8088412B2, “Intralymphatic chemotherapy drug carriers” (priority 2008, dated 2012)
“Also recorded” adds a separate entry of the source. Marks after values point to notes of the source that are not given here.

Experiments:
[1] = Tissue distribution after subcutaneous cisplatin or cisplatin-HA into right mammary fat pad; type: in vivo, Sprague-Dawley rats
Method: Animals were allowed to recover with access to food and water. […] Organs and tissues were washed with 0.9% saline and frozen (−80° C.) until analysis. Plasma was separated by centrifugation from whole blood and frozen (−80° C.).
In vitro release samples (n=3) and plasma samples (n=5) were diluted 200-fold and 10-fold, respectively, with 0.1% nitric acid for analysis. […] Lymph nodes were processed similarly using 10 mg of tissue. After digestion, samples were homogenized (Tissue Tearor, BioSpec Products Inc., Bartlesville, Okla.). All samples were centrifuged (17 000×g, 20 min), and the supernate used for analysis.
Analysis was performed on a Varian SpectrAA GTA-110 with graphite furnace and partition tubes. Samples (21 μL) were injected using the autosampler, followed by 19 μL of 0.1% nitric acid. […] The furnace program was as follows: ramp 25 to 80° C., hold 2 s, ramp to 120° C., hold 10 s, ramp to 1000° C., hold 5 s, ramp to 2700° C., hold 2 s, cool to 25° C. over 20 s. The graphite partition tube was cleaned every 40 samples by baking at 2800° C. for 7 s. Argon was used as the injection and carrier gas.

MDA-1986 = assay: MTS cell viability assay, 72 hours; type: cell-based, human; conditions: 10 nM to 100 micromolar
Method: (§1) To evaluate the anticancer, specifically antiproliferative, effects of HA-cisplatin compared to standard CDDP in vitro in two human head and neck squamous cell carcinoma cell lines (JMAR and MDA-1986) a standard MTS assay was performed as per the manufacturer's specified protocol.
(§2) Once 75% confluent, cells were trypsinized (0.25% trypsin), counted and plated in 96-well microtiter plates (Costar, Cambridge, Mass., USA) (1×10^3 cells/well) in 100 μL of growth media. After an overnight attachment period, cells were exposed to varying concentration of […] for 3 days. All studies were performed in triplicate and repeated at least three times independently. After the 3-d treatment period, the number of viable cells was determined using a colorimetric Cell Proliferation assay (CellTiter96 Aqueous Nonradioactive Cell Proliferation assay; Promega, Madison Wis., USA), which measures the bioreduction of the MTS (3-[4,5-dimethylthiazol-2yl]-5-[3-carboxymethoxyphenyl]-2-[4-sulfophenyl]-2H tetrazolium) by dehydrogenase enzymes of metabolically active cells into soluble formazon product, in the presence of the electron coupling reagent PMS (phenazine methosulfate). To perform the assay, 20 μL of combined MTS/PMS solution containing 2 mg/mL MTS and 150 μM PMS in buffer (0.2 g/L KCl, 8.0 g/L NaCl, 0.2 g/L KH2PO4, 1.15 g/L, […] CaCl2-2H2O, […], MgCl2.6H2O, pH 7.35) was added to each well and then after 3 hr of incubation at 37° C. in a humidified 5% CO2 atmosphere, absorbance was measured at 490 nm in microplate reader. Triplicate wells with predetermined cell numbers were subjected to the above assay in parallel with the test samples to normalize the absorbance readings; this also provided internal confirmation that the assay was linear over the range of absorbance and cell numbers measured. Data was plotted as a function of % viability from controls (cell viability) vs. drug concentration (x-axis).

JMAR = assay: MTS cell viability assay, 72 hours; type: cell-based, human; conditions: 10 nM to 100 micromolar
Method: as §1, §2

[2] = test system: MDA-MB-468LN human breast cancer cells; assay: Tumor response, breast lymphatic tumor xenograft; type: in vivo, Nude nu/nu mice
Method: Nude nu/nu mice were implanted with 1×10^6 cells (MDA-MB-468LN human breast cancer cells) into the mammary fatpad, after approximately 4 weeks a 100-200 mm^3 tumor had developed in the axillary lymph node package. Animals were randomly divided into four treatment groups of five animals each: intravenous saline, s.q. HA, intravenous cisplatin, or s.q. HA-cisplatin. At this point, doses were administered to the animals. In the HA-cisplatin and the HA groups, HA-cisplatin (3.3 mg/kg based on Pt-content) or HA (3.3 mg/kg) was dissolved in 100 mcL saline was injected subcutaneously peritumorally. […] In all study groups, a second dose was administered after 1 week. Tumor volumes were measured weekly using calipers and the formula: Volume=0.52×(width^2*length). Animals were euthanized when the tumor volume exceeded […] or the body score index fell below 2.

[3] = Long-term toxicology: pathological examination (H&E) at 30 days; type: in vivo, Sprague-Dawley rats; conditions: for lymphoid tissue histology (H&E) / underlying tissue at injection site: 30 days post injection; for brain tissue histology (H&E) / kidney tissue histology (H&E) / liver tissue histology (H&E): 30 days post single injection
Method: Each animal was administered a single bolus dose at the beginning of the 30-day study period. […] In order to reduce the stress to animals, subjects were housed in metabolic cages for 12 hrs to collect approximately 5 ml of urine and then returned to cages with bedding until the next collection period. Urine samples were centrifuged at 17,000×g for 5 mins and stored in −80° C. freezer until creatinine analysis.
The animals were euthanized at the end of the study (30 days) and the liver, bilateral kidneys, spleen, lungs, heart, right (ipsilateral) and left (contralateral) axillary nodes, and brain were excised intact and stored in 80% alcoholic formalin solution overnight for fixation before slide mounting. Mounting using haematoxylin & eosin (H&E) staining were conducted by Veterinary Lab Resources (Kansas City, Kans.). The pathological examination was performed by a blinded board-certified veterinarian pathologist (University of Kansas Medical Center, Kansas City, Kans.).

MDA-1986 cells = assay: In vivo efficacy of HA-cisplatin, orthotopic HNSCC model; design: species or system Nu/Nu female athymic nude mice; conditions: subcutaneous, weekly dose of 3.3 mg/kg for 3 weeks; 5 mice
Description: The in vivo efficacy of HA-cisplatin was studied. All treatment began once animal HNSCC tumors reached 100 mm3 volume. Treatment commenced for 3 weeks. All animals were given 5×10^5 MDA-1986 cells in the buccal mucosa of the left cheek (which is a novel orthotopic HNSCC model I developed this year) and tumors develop in 2-3 weeks.

Substance: [PtCl(H2O)(NH3)2]OOCO-HA [HA-cisplatin]
- AUC in the right (draining axillary) lymph node, greater than cisplatin in saline ([1]; 96 hrs, subcutaneous, p=0.0001): 74%
- AUC (0-96 hrs) ([1]; Bladder, subcutaneous into right mammary fatpad of female rats): 194.5 µg·h/g
- AUC (0-96 hrs) ([1]; Brain, subcutaneous into right mammary fatpad): 343.7 µg·h/g
- AUC (0-96 hrs) ([1]; Heart, subcutaneous into right mammary fatpad): 465.3 µg·h/g
- AUC (0-96 hrs) ([1]; Kidneys, subcutaneous into right mammary fatpad): 668.6 µg·h/g
- AUC (0-96 hrs) ([1]; Left lymph node (LLN), subcutaneous into right mammary fatpad): 413.4 µg·h/g
- AUC (0-96 hrs) ([1]; Liver, subcutaneous into right mammary fatpad): 495.0 µg·h/g
- AUC (0-96 hrs) ([1]; Lungs, subcutaneous into right mammary fatpad): 347.3 µg·h/g
- AUC (0-96 hrs) ([1]; Muscle, subcutaneous into right mammary fatpad): 262.1 µg·h/g
- AUC (0-96 hrs) ([1]; Plasma, subcutaneous into right mammary fatpad): 186.1 µg·h/g
- AUC (0-96 hrs) ([1]; Right lymph node (RLN), subcutaneous into right mammary fatpad, p < 0.05): 776.0 ^† μg · hr/g
- AUC (0-96 hrs) ([1]; Spleen, subcutaneous into right mammary fatpad): 383.4 µg·h/g
- distribution of cisplatin to other organs vs cisplatin ([1]; over the study period): not significantly different over the study period
- AUC in the non-draining left lymph node (LLN) vs cisplatin in saline ([1]; p=0.12): not significantly different from cisplatin in saline
- plasma AUC, difference between cisplatin-HA and cisplatin ([1]; p=0.13): not a significant difference
- serum Cmax ([1]; subcutaneous, 3.3 mg/kg cisplatin basis, FIG. 10B): less than 3 micrograms/mL
- tolerability in rodents ([1]; subcutaneous, after 96 hours): well tolerated in rodents with no signs of injection site morbidity or major organ toxicity after 96 hours
- IC50 level compared with CDDP (MDA-1986): no significant difference
- IC50 level compared with CDDP (MDA-1986; listed as HA-Cisplatin): very similar
- IC50 level compared with CDDP (JMAR): no significant difference
- IC50 level compared with CDDP (JMAR; listed as HA-Cisplatin): very similar
- tumor growth delay compared to negative control group ([2]; 3.3 mg/kg (Pt) subcutaneously peritumorally, second dose after 1 week): 5 weeks
- toxicity in treated tumor-bearing animals ([2]; 3.3 mg/kg subcutaneously peritumorally, two doses): no toxicity was observed
- lymphoid tissue histology (H&E) ([3]; 1 mg/kg subcutaneous): normal findings
- underlying tissue at injection site ([3]; 1 mg/kg subcutaneous): normal findings
- brain tissue histology (H&E) ([3]; 1 mg/kg subcutaneous): normal findings
- kidney tissue histology (H&E) ([3]; 1.0 mg/kg subcutaneous): normal appearance except for minimal renal tubular cell swelling and degeneration
- liver tissue histology (H&E) ([3]; 1.0 mg/kg subcutaneous): Very mild changes; also recorded: normal appearance
- lymphoid tissue histology (H&E) ([3]; 3.3 mg/kg subcutaneous): Very mild changes; also recorded: normal findings
- underlying tissue at injection site ([3]; 3.3 mg/kg subcutaneous): normal findings
- brain tissue histology (H&E) ([3]; 3.3 mg/kg subcutaneous): normal findings
- kidney tissue histology (H&E) ([3]; 3.3 mg/kg subcutaneous): fairly normal appearance except for minor foci of tubular cell necrosis at the corticomedullary junction
- liver tissue histology (H&E) ([3]; 3.3 mg/kg subcutaneous): Mild degeneration with some sinusoidal necroses; also recorded: fairly normal appearance except for very mild degeneration
- animals diagnosed with mild renal necrosis ([3]; high dose (3.3 mg/kg) subcutaneous, 30 days, of 5): 20%
- animals with renal necrosis ([3]; low dose (1.0 mg/kg) subcutaneous, 30 days): none
- response to therapy (MDA-1986 cells): 2 animals had a complete response to therapy and the third (HA-cis 1) had a partial response to therapy
- tumor growth delay (MDA-1986 cells): delayed tumor growth in all 5 animals
